Measured values taken from the supplement of paper PMC12636428.

Test system: Saccharomyces cerevisiae
Experiment: transcriptional activation domain activity (GFP:mCherry ratio, weighted mean of sorted bins, harmonized to initial dataset scale) (arbitrary fluorescence ratio units); higher = stronger transcriptional activation
Details: beta-estradiol 1 µM; induction time 4 h
In short: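 Values are activation activity, found as the read-weighted mean of bin median fluorescence, averaged across barcodes and then mapped linearly onto the initial dataset scale. Barcoded protein tiles fused to an estradiol-inducible synthetic transcription factor were integrated at the URA3 locus of GFP-reporter yeast diploids. Cells were induced for 4 hours at 30 °C with 1 uM beta-estradiol in SC, sorted into 8 bins by GFP:mCherry ratio, and barcode-sequenced, with tiles under 50 reads discarded.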

Sequence	transcriptional activation domain activity
TREMREKVEREREGRRRAREEKEKRGGGGGGGKGKKGRGGKGKGKAVPGAGAG	49400
TRGAPPAPPPPPPPPARPSESGAPPPPPPPPARGAPPPPPPPPPPAGGAPPPP	36500
TRHARALEVIKFTKRILSVGGMKYRERMFWWCPIDSATVRAWMLWVLGSIPLV	62900
TRHLHFTRYHIFTNSKCILLAVGKLLYCACALGWYGLIVGFVVTVLMLCQDSL	22600
TRKLVFKWPYVPYLLGRYTMICCLLFVWVLLVNPIDCVHNELFIALVACMAVC	22500
TRMLLHWFHCQDNVWYYYVAFFFAELLVYTVMIVSIGSILFQWRFFCRVAYKM	32000
TRNSCVKIEKEDSLTNLNEIDFTNMFCNDNFIQNYNQGLMELLTEPTPGPSSS	64700
TRPYEMALKFVNVTDTNELLRMRQFACDICDYAPHLLDNDNISLLIVLLILTR	45000
TRQYIINILFGIMTVENFDLEDIIYFYMFIARNLPKYPQHIMLPGTSLHQVLV	54100
TRSFNIMLGMVTFWGVFSLFAIAFQCGLPAPWVFIPSECPTGGYLYYPVIILN	56000
TRSKKSAPRTSESSEDEEQRPSSRPSSRASRPASRASASRKRSDSTGTAGGGE	< 6570
TRTLFMVPQLCCAFSSMWLYQILVAVSIYLTNHVGIMMVRVWSYCVAVYVLEV	69800
TRTRKWWLRTVWACTWLIPSFLLSSVGRMKRPDVRLAWREKVTIFWLIFLFNG	68900
TRTVLFSRGACVILFPWLMYAVGLLLHMIIVNYRLYILYWLLVLKRPIGGFKF	57500
TRVMAEENGMTVDEKAFEEAQEAAKEASRKARGGKGGEEAVALDVHDLAALEK	36200
TRVQDEWVSITKLARQAKESAGKEKKGKGGRGVYSQNSKVWEGVVKLLVAIVA	46300
TRYCWGFINLWYSSLYLSGSIILNLAAFFLLPVHLFVSLMQTHLLQWELLLAF	59500
TSAAPAFGTSGFSAAKPATPAQASAFGSPAALGAKASPWGAQNSSSSGTTAGA	31100
TSAFGGGNTGGGLFGQQNKPTTGFGSSPAPAGGLFGGGSGTTTSTPAFGAAAA	37300
TSAFGNLGSSSSTPSVFGGAGAGTNNTGSGGGGGGGFSAFAGKPTAFGAGAAG	39400
TSAFGQTNNAASPFGGTSNTAAGGFGSPATGGFGTNTAGGAFGSKPAFGATTT	38300
TSAVLDLGDERDVADYDVISLAEDYVGRDNRKGQKRAMRLDESGPRMEIKVVK	45400
TSCFSFLVFSFIFLSLGIMMWSLGQELLWYFVFFCLVWIFLLVVCLFIIEYSE	32500
TSDTGKKRQIKEEAEEESEEEPPTKRQRRKPVEEKETPKKAAAKPKADKVPAK	40500
TSFVLYLKLNQVIAFSLRTIYSINKSKILLGFVGQQWEQHIVSELDSALNKWV	37900

Sequence	transcriptional activation domain activity
TSIFGSNNNNTGSGMFGGNNNTNTGTPFGGGGGFGTNTNTNTAFGSKPFGSST	17500
TSIFGSNNNTGGTMFGSNTNTSSPFGGGGTSNTSIFARRFALSLALLRSPTSY	30900
TSIRKIRAGESGGGESGGGESSGGESSGGGERGRRRRGAKEVEVRARGGGKAT	43700
TSKAQESKTKEGDKEEKAATKREKDDSKEEDDDDDNETEEKQAGDKRKKTNGS	30800
TSLESAPVHVPMHCGIQGVVGSLGVLVSASVVQCVRASIARDSEGGMEWMRVE	33600
TSLRLVMFQITFLDLFFKAYGSNIARLDNNYGFPDKQLPERMVEEVKAIYKIN	56500
TSLVVENGNGNGSGRGRKKRGRDGGGGGRGGGGGRGGGGEEDGLVGGAGAGGG	25000
TSLVYPIHSSDTGDTLSSGLETPENSNFNSDSGIKEDFEAFRALLPLGKLIYD	69500
TSPAPASSANGPAPPRRKRQATTAACRACRKRKSKCDGARPTCSVCRDRKTKC	13100
TSPKKKGRAAAKGKKGADKENAEAKTEVEKKASEDEFKDLEPNGDSKTNGAAA	< 6570
TSQCSISLYHYLIMYHMTLLGVATSVLALVLVCNPAEFLISSSVRLGFIWFCI	73700
TSRAPPSASPPTASHGAPTPPPPSPSSSPAPATPSSHPCPPTSSSSRPPSSPP	41800
TSSPQKGAEKEEAAEAEPEKEKEAEAEAPASPQKRITPMKRGRGRPKRGGAAV	27500
TSSPRRNSPPTRSTSSSPPSSPTSPYPSSSPPRPAPSPRPCARRGPKTPPSRP	30300
TSSPSAHSSTNTNVVFVFGSEDKRVKEVGDALKVKLAVKGGGKGVKWSGKFTG	25400
TSSPSAISSTSVNTLLVAGSEGTDAHVKTVGEQLKTRMGVKGGGKGTRWSGKM	57300
TSSPSAQTAASTTVVLVIGSDDKKVKEVGDELKTKLNVKGGGKGPRWSGKFTG	24700
TSSPSGQNASSTSVALVVGSDEKLVKAVGEGLKSKLGIKGGGKGPRWTGKWTG	33700
TSSSEESSNKGQRQLTVSIDSAAHHDNSTIPLDFMPRDALHGFDWSEEDDMSD	39300
TSSSTAAPAVKRDEKPVKEKKPPAPQAPLEPGAVPEKRKRGRPRKVVSPPVPV	49500
TSSTNHFYGTVVKTKDLLPIYLDVVLWMLKRDLLVTLHLRVRIVVPAELKERA	59600
TSTAPHRGFGFVEFEHPEDAKAAQDNMHLSELYGKTIKVNLARPLKGAGPGGR	57100
TSTGRFAFRQHRDHTTIHEGSWVSAGPGYDVGNRMWLLSRVVINAVVLELSSL	42400
TSTKKTTTTKKATSTKSATATSSCTKYTVKKGDTCSSIASKVGGTTAAKIISK	34000
TSTSGGSLFGGGSTAAPSTGSGGLFGNNSSTPATGAQPGTSLFGKPAGGATAG	14200

Sequence	transcriptional activation domain activity
TSTTPAGAPPADKPAGSLFGVKPAAAGSSSGGLFGQASNTSVAPSSIATTTAS	28400
TSVLPIIAVHCAYKTPISDYILAFCYLLPYIYHSMGYLVRWLYLGLRVIFVAK	70400
TSWKNEDQALVFHLRSRVSAAIMKLECHRDRRIDLLITFREAQRFLLELIGWV	59400
TTAATEPTKTEAAPPAPATEPAPAAEPAAPAAEPAKEEAKPATEVKPEAPAAA	24800
TTAETTAPAAETDAAAKVEEAKPAAATTEAKPAAAAPKPAADKKVKRSSTILQ	10600
TTGCREGFDWTPLSSVRYGGICGGRLFSICHTTFEGLAIIGMPNILICNYNVT	43300
TTGGLFGGGAANTGTTGGFGSGGGFGSSTTGGGGLFGNAGNQPKPAGLFGSST	27700
TTKPKEASKPKEDPKPRSKSPVKKEETKVEKPKEDPPKAEAKSIPATTAAAAV	59300
TTLTEKGSQVMEKNMDQLDSVHNLNDDDLQQLLEDLGNIDHSDEKLWKEITDQ	93200
TTLVNTTAPYFPYSFSALEGSTFNGFSFDQTMFDLFLEVWEQTDPLMNYLFDF	162000
TTLVTGTQLFFLLSFRDTMFAFSFLLFSPFVLFLWYGFFSSGALFISLICFLV	54700
TTTGTTTTGTTATPSSSPETKPNKIPISMQGYAYSGGGRAIARVDVSLDNGRT	37700
TTTLTGRPPSTFSGPETSNGPPTGSLPSKFVHDLMSNSPNVSSISMFPDWSMG	21600
TTTTAADDADTDSKKEKEKEQAAVKVKVKEKEKEKRVLVHCCMGRSRSGAVVV	20200
TTWLAHSKKKNCDVCKHPYSFTKVYATDMPTRLPPVLLLRRIAQQSFFAMVFA	44800
TVDSLLTFVPFFLLTLLFLLISLFLFILFFLIFFFLFIPFSSFLFIYFSLSFH	32200
TVEFLLPFLSFSLLGCLFIFYFIFFLCFLFFFSQTFCFFISSNCWCFVSNLLP	34700
TVGPVDNNYRDLEAYLETRYLRYCDPSKSLHLMATLMVRCAINILRFMARHPR	54100
TVGVLILWCWLRLIQKALEKLHVKQIKTGHYGSPPLKNMLLPWLKQTFIFVLA	69100
TVKEEEEEVKAKPAAAKVSRVRKAAAAKAQSEPEKDVAGPAPKTRAARTRAAS	48100
TVKNLYLFIIITTVNVVVLLICVAHFALVFMSRAGLSLHARQLTALMHAKFTH	49000
TVLLDVALNGNPKELIVFILEHVYSLENDLTVLQQSLLVLVICKVYNETYPKQ	67400
TVMVFGSDEKRVKAVGDMLKANLNVKGGGKGTRWSGKRTGVWSDSREGAAVTG	47800
TVPVLVLVIYDWPRDRSNAYQVVLAISIWCWGVYQLLYIFLCGLYNPNFSTFR	59700
